Test results as given in the supplement of paper PMC11246515.
± gives the standard deviation of the averaged measurements.

Test: total protein half-life in vivo (active degradation + dilution); higher = more stable protein
[1] = E. coli NCM3722 delta-clpP delta-lon delta-hslV, growth: N-lim chemostat, doubling time 6 h
[2] = E. coli NCM3722 delta-clpP, growth: N-lim chemostat, doubling time 6 h
[3] = E. coli NCM3722 delta-lon, growth: N-lim chemostat, doubling time 6 h
[4] = E. coli NCM3722 delta-smpB, growth: N-lim chemostat, doubling time 6 h
[5] = wild type E. coli NCM3722, growth: C-lim chemostat, doubling time 3 h
[6] = wild type E. coli NCM3722, growth: C-lim chemostat, doubling time 12 h
[7] = wild type E. coli NCM3722, growth: N-lim chemostat, doubling time 6 h
[8] = wild type E. coli NCM3722, growth: N-lim chemostat, doubling time 12 h
[9] = wild type E. coli NCM3722, growth: P-lim chemostat, doubling time 6 h
[10] = wild type E. coli NCM3722, growth: P-lim chemostat, doubling time 12 h
[11] = wild type E. coli NCM3722, growth: C-lim chemostat, doubling time 6 h
[12] = E. coli NCM3722 delta-hslV, growth: N-lim chemostat, doubling time 6 h

| Sequence | total protein half-life in vivo [1] [h] | total protein half-life in vivo [2] [h] | total protein half-life in vivo [3] [h] | total protein half-life in vivo [4] [h] | total protein half-life in vivo [5] [h] | total protein half-life in vivo [6] [h] | total protein half-life in vivo [7] [h] | total protein half-life in vivo [8] [h] | total protein half-life in vivo [9] [h] | total protein half-life in vivo [10] [h] | total protein half-life in vivo [11] [h] | total protein half-life in vivo [12] [h] |
| --- | --- | --- | --- | --- | --- | --- | --- | --- | --- | --- | --- | --- |
| MNLTLTRRLWMGFALMALLTLTSTLVGWYNLRFISQVEKDNTQALIPTMNMARQLSEASAWELFAAQNLTSADNEKMWQAQGRMLTAQSLKINALLQALREQGFDTTAIEQQEQEISRSLRQQGELVGQRLQLRQQQQQLSQQIVAAADEIARLAQGQANNATTSAGATQAGIYDLIEQDQRQAAESALDRLIDIDLEYVNQMNELRLSALRVQQMVMNLGLEQIQKNAPTLEKQLNNAVKILQRRQIRIEDPGVRAQVATTLTTVSQYSDLLALYQQDSEISNHLQTLAQNNIAQFAQFSSEVSQLVDTIELRNQHGLAHLEKASARGQYSLLLLGMVSLCALILILWRVVYRSVTRPLAEQTQALQRLLDGDIDSPFPETAGVRELDTIGRLMDAFRSNVHALNRHREQLAAQVKARTAELQELVIEHRQARAEAEKASQAKSAFLAAMSHEIRTPLYGILGTAQLLADNPALNAQRDDLRAITDSGESLLTILNDILDYSAIEAGGKNVSVSDEPFEPRPLLESTLQLMSGRVKGRPIRLATAIADDMPCALMGDPRRIRQVITNLLSNALRFTDEGYIILRSRTDGEQWLVEVEDSGCGIDPAKLAEIFQPFVQVSGKRGGTGLGLTISSRLAQAMGGELSATSTPEVGSCFCLRLPLRVATAPVPKTVNQAVRLDGLRLLLIEDNPLTQRITIEMLKTSGAQIVAVGNAAQALETLQNSEPFAAALVDFDLPDIDGITLARQLAQQYPSLVLIGFSAHVIDETLRQRTSSLFRGIIPKPVPREVLGQLLAHYLQLQVNNDQSLDVSQLNEDAQLMGTEKIHEWLVLFTQHALPLLDEIDIARASQDSEKIKRAAHQLKSSCSSLGMHIASQLCAQLEQQPLSAPLPHEEITRSVAALEAWLHKKDLNAI | 3.75 | 4.08 | 4.54 ± 0.12 | 4.12 ± 0.42 | 2.81 | 6.76 | 5.462 ± 0.037 | > 16 | 6.79 ± 1.1 | 10.3 ± 0.94 | – | – |
| MNLWQQNYDPAGNIWLSSLIASLPILFFFFALIKLKLKGYVAASWTVAIALAVALLFYKMPVANALASVVYGFFYGLWPIAWIIIAAVFVYKISVKTGQFDIIRSSILSITPDQRLQMLIVGFCFGAFLEGAAGFGAPVAITAALLVGLGFKPLYAAGLCLIVNTAPVAFGAMGIPILVAGQVTGIDSFEIGQMVGRQLPFMTIIVLFWIMAIMDGWRGIKETWPAVVVAGGSFAIAQYLSSNFIGPELPDIISSLVSLLCLTLFLKRWQPVRVFRFGDLGASQVDMTLAHTGYTAGQVLRAWTPFLFLTATVTLWSIPPFKALFASGGALYEWVINIPVPYLDKLVARMPPVVSEATAYAAVFKFDWFSATGTAILFAALLSIVWLKMKPSDAISTFGSTLKELALPIYSIGMVLAFAFISNYSGLSSTLALALAHTGHAFTFFSPFLGWLGVFLTGSDTSSNALFAALQATAAQQIGVSDLLLVAANTTGGVTGKMISPQSIAIACAAVGLVGKESDLFRFTVKHSLIFTCIVGVITTLQAYVLTWMIP | – | – | – | – | 1.79 | 2.6 ± 0.12 | – | – | – | – | 1.93 | – |
| MNMKKLATLVSAVALSATVSANAMAKDTIALVVSTLNNPFFVSLKDGAQKEADKLGYNLVVLDSQNNPAKELANVQDLTVRGTKILLINPTDSDAVGNAVKMANQANIPVITLDRQATKGEVVSHIASDNVLGGKIAGDYIAKKAGEGAKVIELQGIAGTSAARERGEGFQQAVAAHKFNVLASQPADFDRIKGLNVMQNLLTAHPDVQAVFAQNDEMALGALRALQTAGKSDVMVVGFDGTPDGEKAVNDGKLAATIAQLPDQIGAKGVETADKVLKGEKVQAKYPVDLKLVVKQ | 3.56 ± 0.29 | 5.92 ± 0.94 | 6.39 ± 0.68 | 6.26 ± 0.56 | 3.27 ± 0.035 | 9.24 ± 0.57 | 6.13 ± 0.6 | 10.9 ± 0.88 | 6.05 ± 0.068 | 11.5 ± 0.92 | 6.14 ± 1.1 | – |
| MNMKLKTLFAAAFAVVGFCSTASAVTYPLPTDGSRLVGQNQVITIPEGNTQPLEYFAAEYQMGLSNMMEANPGVDTFLPKGGTVLNIPQQLILPDTVHEGIVINSAEMRLYYYPKGTNTVIVLPIGIGQLGKDTPINWTTKVERKKAGPTWTPTAKMHAEYRAAGEPLPAVVPAGPDNPMGLYALYIGRLYAIHGTNANFGIGLRVSHGCVRLRNEDIKFLFEKVPVGTRVQFIDEPVKATTEPDGSRYIEVHNPLSTTEAQFEGQEIVPITLTKSVQTVTGQPDVDQVVLDEAIKNRSGMPVRLN [P0AAX8] | 6.81 ± 1.6 | 5.74 ± 0.27 | 6.15 ± 0.32 | 6.37 ± 0.75 | 2.9 ± 0.083 | 11.6 ± 0.4 | 5.98 ± 0.64 | 13.7 ± 1.3 | 5.606 ± 0.037 | 12.3 ± 0.94 | 5.76 ± 0.11 | 6.22 ± 0.09 |
| MNMKTIEDVFIHLLSDTYSAEKQLTRALAKLARATSNEKLSQAFHAHLEETHGQIERIDQVVESESNLKIKRMKCVAMEGLIEEANEVIESTEKNEVRDAALIAAAQKVEHYEIASYGTLATLAEQLGYRKAAKLLKETLEEEKATDIKLTDLAINNVNKKAENKA | 5.25 ± 0.25 | – | 6.51 ± 0.95 | 4.94 ± 0.081 | 3.02 ± 0.13 | 10.5 ± 1.4 | 4.881 ± 0.03 | 7.99 ± 0.53 | 5.294 ± 0.042 | 10.3 ± 0.62 | 5.04 ± 0.77 | 5.18 ± 0.69 |
| MNMMRIFYIGLSGVGMMFSSMASGNDAGGLQSPACGVVCDPYICVNSDGISPELTRKYLGEKAAENLQSLQGYDPSEFTFANGVFCDVKEKLCRDDRYFGVDGKRSGKINQTTTKMLFMCRE | 5.09 ± 1.6 | 5.4 | 5.64 | – | 2.85 ± 0.51 | – | 4.42 ± 1.2 | > 16 | 4.78 ± 0.93 | – | 5.52 ± 0.4 | 6.01 ± 0.28 |
| MNNFNLHTPTRILFGKGAIAGLREQIPHDARVLITYGGGSVKKTGVLDQVLDALKGMDVLEFGGIEPNPAYETLMNAVKLVREQKVTFLLAVGGGSVLDGTKFIAAAANYPENIDPWHILQTGGKEIKSAIPMGCVLTLPATGSESNAGAVISRKTTGDKQAFHSAHVQPVFAVLDPVYTYTLPPRQVANGVVDAFVHTVEQYVTKPVDAKIQDRFAEGILLTLIEDGPKALKEPENYDVRANVMWAATQALNGLIGAGVPQDWATHMLGHELTAMHGLDHAQTLAIVLPALWNEKRDTKRAKLLQYAERVWNITEGSDDERIDAAIAATRNFFEQLGVPTHLSDYGLDGSSIPALLKKLEEHGMTQLGENHDITLDVSRRIYEAAR | – | 5.02 ± 0.23 | 4.949 ± 0.041 | 4.48 ± 0.23 | 3.27 ± 0.089 | 11.6 ± 0.92 | 5.22 ± 0.38 | 7.834 ± 0.065 | 5.35 ± 0.47 | 10.2 ± 0.89 | 6.48 ± 1 | 4.48 ± 0.25 |
| MNNHFGKGLMAGLKATHADSAVNVTKFCADYKRGFVLGYSHRMYEKTGDRQLSAWEAGILTRRYGLDKEMVMDFFRENNSCSTLRFFMAGYRLEN | 4.99 ± 0.16 | – | – | – | – | – | – | – | – | – | – | – |
| MNNHFKCIGIVGHPRHPTALTTHEMLYRWLCTKGYEVIVEQQIAHELQLKNVKTGTLAEIGQLADLAVVVGGDGNMLGAARTLARYDIKVIGINRGNLGFLTDLDPDNAQQQLADVLEGHYISEKRFLLEAQVCQQDCQKRISTAINEVVLHPGKVAHMIEFEVYIDEIFAFSQRSDGLIISTPTGSTAYSLSAGGPILTPSLDAITLVPMFPHTLSARPLVINSSSTIRLRFSHRRNDLEISCDSQIALPIQEGEDVLIRRCDYHLNLIHPKDYSYFNTLSTKLGWSKKLF [P0A7B3] | – | 4.25 ± 0.11 | 6.6 ± 1.1 | 4.75 ± 0.69 | 3.19 ± 0.49 | 12.1 | 4.4 ± 0.37 | 7.59 | 5.9 ± 0.21 | 11.1 ± 0.2 | 5.33 ± 0.2 | 5.35 ± 1.2 |
| MNNMNVIIADDHPIVLFGIRKSLEQIEWVNVVGEFEDSTALINNLPKLDAHVLITDLSMPGDKYGDGITLIKYIKRHFPSLSIIVLTMNNNPAILSAVLDLDIEGIVLKQGAPTDLPKALAALQKGKKFTPESVSRLLEKISAGGYGDKRLSPKESEVLRLFAEGFLVTEIAKKLNRSIKTISSQKKSAMMKLGVENDIALLNYLSSVTLSPADKD [P0DMC7] | 5.91 ± 1.9 | 4.22 ± 1.2 | 3.758 ± 0.014 | 2.9 ± 0.3 | 2.71 ± 0.096 | 6.66 ± 1.3 | 3.01 ± 0.38 | 4.16 ± 0.46 | 3.42 ± 0.59 | 5.56 ± 0.093 | 4.35 ± 0.097 | 2.69 ± 0.2 |
